Results as given in US20230020729A1 (Memorial Sloan Kettering, published 2023).

B1: ET200-069 scFv (scFv)
scFv: QSVVTQPPSASGTPGQRVTISCSGSSSNIGSNYVYWYQQLPGTAPKLLIYSNNQRPSGVPDRFSGSKSGTSASLAISGLRSEDEADYYCAAWDDSLSGYVFGTGTKLTVLGSRGGGGSGGGGSGGGGSLEMAQVQLQQWGAGLLKPSETLSLTCAVYGGSFSGYYWSWIRQPPGKGLEWIGEINHSGSTNYNPSLKSRVTISVDTSKNQFSLKLSSVTAADTAVYYCARLYEGGYHGWGSWLSSDSWGQGTLVTVSS
notes: VL-linker-VH; screened as scFv phage clone; also called ET200-69
B2: ET200-038 scFv (scFv)
scFv: QSVLTQPPSVSGAPGQRVTISCTGSSSNIGAGFDVHWYQLLPGTAPKLLIYANSNRPSGVPDRFSGSKSGTSASLAITGLLAEDEADYYCQSYDSSLSGVVFGGGTKLTVLGSRGGGGSGGGGSGGGGSLEMAQVQLVQSGAEVKKPGSSVKVSCKASGGTFSSYAISWVRQAPGQGLEWMGGIIPIFGTANYAQKFQGRVTITADESTSTAYMELSSLRSEDTAVYYCARGASFDRHDNWGQGTLVTVSS
notes: VL-linker-VH; screened as scFv phage clone
B3: ET200-003 scFv (scFv)
scFv: QSVLTQPPSVSVSPGQTASISCSGNKLGTKYVYWYQKRPGQSPVLVMYEDNQRPSGIPERFSGSNSGNTATLTIRGTQTVDEADYYCQAWDSDTFVVFGGGTKVTVLGSRGGGGSGGGGSGGGGSLEMAEVQLVETGGGVVQPGRSLRLSCAASGFTFSSYGMHWVRQAPGKGLEWVAVISHDGSNKYYADSVKGRFTISRDNSKDTLYLQMNSLRGEDTAVYYCARSNQWSGYFSFDYWGQGTLVTVSS
notes: as for B2
B4: ET200-079 scFv (scFv)
scFv: SYELTQPPSASGTPGQRVTISCSGSSSNIGSNYVYWYQQLPGTAPKLFIYRNNQRPSGVPDRFSGSKSGTSASLAISGLRSEDEADYYCAAWDDSLSGYLFGTGTKVTVLGSRGGGGSGGGGSGGGGSLEMAEVQLVESGGGLVQPGRSLRLSCAASGFTFDDYAMHWVRQAPGKGLEWVSGISWNSGSIGYADSVKGRFTISRDNAKNSLYLQMNSLRAEDTALYYCANGDSNYYYGMDVWGQGTTVTVSS
notes: as for B2
B5: ET200-034 scFv (scFv)
scFv: QSVLTQPPSVSGAPGQRVTISCTGSTSNIGAGYDVHWYQQLPGTAPKLLINNNRNRPSGVPDRFSGSKSGTSATLGITGLQTGDEADYYCGTWDGSLTGAVFGGGTKLTVLGSRGGGGSGGGGSGGGGSLEMAEVQLVQSGAEVKKPGSSVKVSCKASGGTFSSYAISWVRQAPGQGLEWMGGIIPIFGTANYAQKFQGRVTITADESTSTAYMELSSLRSEDTAVYYCARGSALDHYDRWGQGTLVTVSS
notes: as for B2
B6: ET200-028 scFv (scFv)
scFv: QSVLTQPPAASGTPGQRVTISCSGGVSNIGSGALNWYQQLPGTAPKLLIYSYNQRPSGVSDRFSGSRSATSASLAISGLQSEDEADYYCATWDDSVNGWVFGGGTKLTVLGSRGGGGSGGGGSGGGGSLEMAQVQLVQSGAEVKKPGDSVKVSCKPSGYNFLNYGINWVRQAPGQGLEWMGWISTYTGNTNYAQKLQGRVTFTTDTSTSTAYMEMRSLRSDDTAVYYCARDLYYYEGVDYWGQGTLVTVSS
notes: as for B2
B7: ET200-044 scFv (scFv)
scFv: QSVLTQPPSVSVSPGQTATIACSGHKLGDKYASWYQQKSGQSPVLIIYQDNKRPSGIPERFSGSNSGNTATLTISGTQALDEADYYCQAWDSSTYVAFGGGTKLTVLGSRGGGGSGGGGSGGGGSLEMAQVQLQESGPGLVKPSETLSLTCVVSGGSISSSNWWSWVRQPPGKGLEWIGEIYHSGSPNYNPSLKSRVTISVDKSKNQFSLKLSSVTAADTAVYYCARMTTHTFGYDAWGQGTLVTVSS
notes: as for B2
B8: ET200-029 scFv (scFv)
scFv: QAVLTQPPSVSVAPGKTARVTCGGNNIGSESVHWYQQKPGQAPVLVIYYDTDRPSGIPERFSGSHSGTTATLTISRVEAGDEADYYCQVWDSSRDHVVFGGGTKLTVLGSRGGGGSGGGGSGGGGSLEMAQVQLVQSGGGVVQPGRSLRLSCAASGFTFSSYAMHWVRQAPGKGLEWVAVISYDGSNKYYADSVKGLFTISRDNSKNTLYLQMNSLRAEDTAVYYCARSYFTSGFYDYWGQGTLVTVSS
notes: as for B2
B9: ET200-032 scFv (scFv)
scFv: LPVLTQPPSASGTPGQRVTISCSGSSSNVGSYTVNWYRQLPGTAPTLLIYNNNQRPSGVPDRFSDSKSGTSASLTISGLQPEDEADYYCAAWDDRLGGYVFGTGTKVTVLGSRGGGGSGGGGSGGGGSLEMAEVQLVQSGAEVKKPGESLKISCKGSGYSFTNYWIGWVRQMPGKGLEWMGIIYPGDSDTRYSPSFQGQVTISADKSISTAYLQWSSLKASDTAMYYCARSTGSSHMSDEWGQGTLVTVSS
notes: as for B2
B10: ET200-006 scFv (scFv)
scFv: SYVLTQPPSVSVAPGKTARITCGGNNIGSKSVHWYQQKPGQAPVVVIHYDSDRPSGIPERFSGSNSGNTATLTISRVEAGDEADYYCQVWDSSSDHPYVFGTGTKVTVLGSRGGGGSGGGGSGGGGSLEMAEVQLVQSGAEVKKPGASVKVSCKASGYTFTTYGISWVRQAPGQGLEWMGWINTYNGHTNYAQKLQGRATMTADTSTNTAYMELRSLRSDDTAVYYCARVIYGSGDYWGQGTLVTVSS
notes: as for B2
B11: ET200-033 scFv (scFv)
scFv: NFMLTQPHSVSESPGKTVTISCTGSSGSIASNYVQWYQQRPGSAPTTVIYEDNQRPSGVPDRFSGSIDSSSNSASLTISGLKTEDEADYYCQSYDSSNHWVFGGGTKLTVLGSRGGGGSGGGGSGGGGSLEMAQVQLQQWGAGLLKPSETLSLTCAVYGGSFSGYYWSWIRQPPGKGLEWIGEITHSGRSNYNPSLKSRVTISVDTSKNQFSLKLSSVTAADTAVYYCARSSIMSDYWGQGTLVTVSS
notes: as for B2
B12: ET200-030 scFv (scFv)
scFv: QSVVTQPPSVSGAPGQRVTISCTGSSSNIGAGYDVNWYQQFPGTAPKLLIYGNSNRPSGVPDRFSGSKSGTSASLAITGLQAEDEADYYCQSYDSSLSGSYVFGTGTKVTVLGSRGGGGSGGGGSGGGGSLEMAQMQLVQSGAEVKKPGASVKVSCKASGYTLTELSMHWVRQAPGKGLEWMGGFDPEDGETIYAQKFQGRVTMTEDTSTDTAYMELSSLRSEDTAVYYCARMSSMYYDWGQGTLVTVSS
notes: as for B2
B13: ET200-042 scFv (scFv)
scFv: QSVVTQPPSVSGAPGQTVTISCTGGSSNIGTGYFVNWYQQVPGKAPKLLILGNNNRPSGVPDRLSGSTSGTSASLAITGLQAEDEGTYYCQSYDSSLSGYVFGTGTKVTVLGSRGGGGSGGGGSGGGGSLEMAQVQLQQSGPGLVKPSQTLSLTCGISGDSVSTNSVAWHWIRQSPSRGLEWLGRTYYRSKWSNDYGVSVKSRITIIPDTSKNQFSLQLNSVTPEDTAVYYCARSSSWYQIFDYWGQGTLVTVSS
notes: as for B2
B14: ET200-045 scFv (scFv)
scFv: QPVLTQPPSVSVAPGKTATITCGGNNIGSESVHWYHQKPGQAPVLVIYDDAGRPSGIPERFTGSNSGNTATLTISRVEAGDEADYYCQVWDRNSAQFVFGPGTKVTVLGSRGGGGSGGGGSGGGGSLEMAEVQLVQSGAEVKKPGASVKVSCKASGYTFTSYGISWVRQAPGQGLEWMGWISAYNGNTNYAQKLQGRVTMTTDTSTSTAYMELRSLRSDDTAVYYCARGVHLDWWGQGTLVTVSS
notes: as for B2
B15: ET200-040 scFv (scFv)
scFv: QSVLTQPPSVSGAPGQRVTISCTGSSSNIGAGYDVHWYQQLPGTAPKLLIYGNSNRPSGVPDRFSGSKSGTSASLAITGLQAEDEADYYCQSYDSSLSGYVFGTGTKVTVLGSRGGGGSGGGGSGGGGSLEMAQVQLVQSGAEVKKPGASVKVSCKVSGYTLTELSMHWVRQAPGKGLEWMGGFDPEDGETIYAQKFQGRVTMTEDTSTDTAYMELSSLRSEDTAVYYCARYSGVYYDWGQGTLVTVSS
notes: as for B2
B16: ET200-031 scFv (scFv)
scFv: SYVLTQPPSVSVAPGKTARITCGGNNIGSKSVHWYQQKPGQAPVLVIYYDSDRPSGIPERFSGSNSGNTATLTISRVEAGDEADYYCQVWDSSSDYVFGTGTKVTVLGSRGGGGSGGGGSGGGGSLEMAEVQLVETGGGLVKPGGSLRLSCAASGFTVSDYYMSWIRQAPGKGLEWISYISGSGNSIYYADSVKGRFTISRDNAKNSLDLQMTSLRAEDTAVYYCARSTKFDYWGQGTLVTVSS
notes: VL-linker-VH; screened as scFv phage clone; also called ET200-31
B17: ET200-041 scFv (scFv)
scFv: NFMLTQPHSVSGSPGKTVTISCTGSSGSIADNFVQWYQQRPGGVPTTVIFNDDERPSGVPDRFSGSIDTSSNSASLTISGLKTEDEADYYCQSYDNNNRGVFGGGTKLTVLGSRGGGGSGGGGSGGGGSLEMAQVQLVQSGAEVKKPGSSVKVSCKASGGTFSSYAISWVRQAPGQGLEWMGWMNPNSGNTGYAQKFQGRVTMTRNTSISTAYMELSNLRSEDTAVYYCARYYSYGYDWGQGTLVTVSS
notes: as for B2

Molecular target: T1, human Fc Receptor-Like 5 (FcRL5), full length, expressed on cells (human, UniProt Q96RD9 16-977)
T1 construct: also called CD307e; IRTA2
T1 sequence: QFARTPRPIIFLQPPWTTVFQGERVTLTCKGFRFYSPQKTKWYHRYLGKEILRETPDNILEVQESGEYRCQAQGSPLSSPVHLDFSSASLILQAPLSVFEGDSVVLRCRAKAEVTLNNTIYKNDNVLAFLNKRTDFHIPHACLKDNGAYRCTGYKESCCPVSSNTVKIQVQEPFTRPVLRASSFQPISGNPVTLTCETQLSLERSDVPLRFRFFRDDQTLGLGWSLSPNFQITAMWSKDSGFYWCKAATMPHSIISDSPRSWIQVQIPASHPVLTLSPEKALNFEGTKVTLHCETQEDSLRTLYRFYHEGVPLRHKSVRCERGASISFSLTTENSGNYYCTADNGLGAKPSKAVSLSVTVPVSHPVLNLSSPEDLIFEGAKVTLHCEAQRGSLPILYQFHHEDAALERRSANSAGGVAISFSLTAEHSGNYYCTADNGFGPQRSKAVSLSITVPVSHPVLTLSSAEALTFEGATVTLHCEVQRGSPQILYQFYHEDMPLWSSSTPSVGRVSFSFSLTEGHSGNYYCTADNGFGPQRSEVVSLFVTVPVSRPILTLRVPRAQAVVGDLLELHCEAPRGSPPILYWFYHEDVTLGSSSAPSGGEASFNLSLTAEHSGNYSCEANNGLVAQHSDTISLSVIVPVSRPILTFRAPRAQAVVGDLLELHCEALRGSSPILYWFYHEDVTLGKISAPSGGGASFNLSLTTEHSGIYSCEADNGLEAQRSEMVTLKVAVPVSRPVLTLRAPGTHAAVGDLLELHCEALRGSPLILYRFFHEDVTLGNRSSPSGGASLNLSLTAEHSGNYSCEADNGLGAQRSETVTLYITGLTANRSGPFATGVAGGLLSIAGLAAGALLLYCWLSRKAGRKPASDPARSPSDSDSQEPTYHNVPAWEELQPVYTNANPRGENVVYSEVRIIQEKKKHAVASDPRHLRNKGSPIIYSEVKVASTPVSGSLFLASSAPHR
Experiment: scFv phage: ELISA on His-tag FcRL5, flow cytometry on FcRL5-overexpressing 3T3 and Raji cells

Row | Binder | binding result
1 | B1 | binds
2 | B2 | binds
3 | B3 | binds
4 | B4 | binds
5 | B5 | binds
6 | B6 | binds
7 | B7 | binds
8 | B8 | binds
9 | B9 | binds
10 | B10 | binds
11 | B11 | binds
12 | B12 | binds
13 | B13 | binds
14 | B14 | binds
15 | B15 | binds
16 | B16 | binds
17 | B17 | binds
